Data on three substances can be found in article PMC3498381, “Isolated Toll-like Receptor Transmembrane Domains Are Capable of Oligomerization” (PLoS ONE, 2012).

No end group written: not given here.

The subject of data set [1] is GpA TMD (functional ToxR chimera). As to the kind of experiment: Dominant-negative (heterotypic) ToxR assay, GpA as dominant phenotype. It counts as cell-based. To be noted: Miller units normalized to poly-Leu* = 1 and corrected for expression, lower = stronger interaction, N in table. The text has this:
(§1) Next, we investigated heterotypic interactions of the TLRs. We specifically studied TLR2, TLR1, and TLR6 because they are cell surface expressed receptors known to form functional heterodimers. To determine the ability of these three cell surface TLRs to have heterotypic interactions within its family, we studied the ability of the TLR1, TLR2, and TLR6 TMDs to interact with the TLR receptors also expressed at the cell surface; namely, TLR1, TLR2, TLR4, TLR5, TLR6, and TLR10. We monitored these interactions using a dominant-negative ToxR assay (Fig. S1B) which works by having a second TMD expressed with a non-functional ToxR* intracellular domain. This ToxR* domain is incapable of binding the ctx promoter making any interactions with this second expressed TMD unable to produce the reporter enzyme. As such, any interaction between the functional ToxR and non-functional ToxR* TMDs will result in a reduction in signal output.
(§2) Figure 3 Cell- Surface Toll-like Recptor Heterotypic Interactions. (A) A dominant-negative ToxR assay was used to study heterotypic interactions of the cell-surface TLRs. Two TLR TMDs were encoded in the FHK12 E.coli reporter strain, one with a functional ToxR domain (dominant phenotype) and one with a nonfunctional ToxR* domain (negative phenotype). Interaction between the two different TMDs leads to a reduction in signal from that seen for homotypic interactions. The TMDs for GpA, TLR1, TLR2, and TLR6 were used with the functional ToxR domain while TMDs for poly-Leucine, TMD5, integrin αIIb, TLR1, TLR2, TLR4, TLR5, TLR6, and TLR10 were used with the nonfunctional ToxR* domain. Interactions were most prominent for the TLRs known to have heterotypic interactions – TLR2-TLR1 and TLR2-TLR6. […] We also saw interaction with the same TMD further validating the homotypic interactions. […] Each dominant phenotype was done in 3 technical replicates with each negative phenotype and >6 measurements made for each replicate. Error bars depict the standard error of the mean (n- Tables S3, S5, S7, S9). Western blots staining for MBP were performed to monitor expression levels of the constructs with the upper band being functional ToxR chimeras and the lower band being nonfunctional ToxR* chimeras – (B) GpA, (C) TLR1, (D) TLR2, and (E) TLR6. Significant differences for the same dominant phenotype were determined by use of the Tukey-Kramer test.
(§3) For heterotypic interactions one plasmid containing a functional ToxR domain (200 ng) and a second plasmid containing a non-functional ToxR* domain (200 ng) were co-transformed into chemically competent FHK12 E. coli (400 µL) by incubating on ice for 30 min, heat shock at 42°C for 90 s, incubation on ice for 2 min, and addition of SOC media (1600 µL) followed by incubation with shaking for 1 h at 37°C. This transformation mixture (50 µL) was then used to spread LB-agar plates containing cholaramphenicol (30 µg/mL), kanamycin (33 µg/mL), and ampicillin (100 µg/mL) and grown overnight at 37°C. Single colonies were selected from the plates and grown in 5 mL LB media containing cholaramphenicol (30 µg/mL), kanamycin (33 µg/mL), ampicillin (100 µg/mL), and arabinose (0.0025%) overnight (16–20 h) with shaking at 37°C. Analysis of activity was monitored as described in homotypic ToxR assays. Western blotting was done in the same manner as the homotypic ToxR assay with one band appearing for the functional ToxR construct and a second band for the nonfunctional ToxR* construct. Data were normalized to poly-Leu* Miller Units and corrected for varying protein expression levels using ImageJ (NIH) as previously reported.

Data set [2] deals with TLR1 TMD (functional ToxR chimera). Nature of the data set: Dominant-negative (heterotypic) ToxR assay, TLR1 as dominant phenotype. It counts as cell-based. To be noted: Miller units normalized to poly-Leu* = 1 and corrected for expression, lower = stronger interaction, N in table.
Excerpt: as §1, §2, §3

A short description of data set [3]: Circular dichroism, helical content by CDNN. It counts as physicochemical. To be noted: CD, CDNN analysis; 5-10 µM peptide, 10 mM C14-betaine micelles, 20 mM HEPES pH 7.4, 25°C, average of 9 scans. The method, then: Figure 4 Circular Dichroism Spectra of TLR1, TLR2, and TLR6 Synthetic TMD Peptides. Far-UV spectra of the synthetic TMD peptides at concentrations ranging from 5–10 µM in the presence of 10 mM C14-betaine detergent micelles. Spectra were collected at 25°C with a step size of 1 nm and are the average of 9 scans. All peptides had helical content >99% (Table S11) as determined using CDNN [63].
CD measurements were performed on a ChirascanPlus spectrometer (Applied Photophysics) using a 1.0 mm path length quartz cuvette. Peptides and C14-Betaine (3-(N,N-Dimethylmyristylammonio)propanesulfonate: Sigma) were co-dissolved in 2,2,2-trifluoroethanol. The organic solvent was removed by drying to a thin film using N2 and further dried overnight under reduced pressure to remove all traces of TFE. Samples were resusupended in a 20 mM HEPES buffer, pH 7.4, yielding a final C14-Betaine concentration of 10 mM. Peptide concentrations were determined using Beer-Lambert law with coumarin absorbance at 400 nm using ε400 of 39,300 M^−1 cm^−1 [62] and FITC absorbance at 495 nm using ε495 of 68,000 M^−1 cm^−1 (Invitrogen). Peptides were prepared such that final concentrations were in the 5–10 µM range. All CD spectra were measured at 25°C with a step size of 1 nm and are reported as the average of 9 scans. Data were not collected below 200 nm due to the high voltage and background noise from the C14-Betaine buffer. Helical content was determined using CDNN [63].
Background: CD spectra are sensitive to the conformation of chiral molecules.

For “TLR6*: TLR6 TMD chimera with nonfunctional ToxR* domain (negative phenotype) (GNRASITLLIVTIGATMLVLAVTVTSLCIYLGSLIN; also: fused to non-functional ToxR* (S87H) and maltose binding protein, ends not given here)”, the “Mean GpA-TMD* heterotypic interaction (ToxR signal)” value in data set [1] worked out at 1.0451. In data set [2], the “Mean TLR1-TMD* heterotypic interaction (ToxR signal)” value came out at 0.3349. For the same substance, in data set [3], the “Helix content, 200-260 nm” value came to 99.90%; the “Helix content, 205-260 nm” value was found to be 100.00%; the “Helix content, 210-260 nm” value is reported as 100.00%.

For “TLR1*: TLR1 TMD chimera with nonfunctional ToxR* domain (negative phenotype) (GNRASITLLIVTIVATMLVLAVTVTSLCSYLGSLIN; also: fused to non-functional ToxR* (S87H) and maltose binding protein, ends not given here)”, the “Mean GpA-TMD* heterotypic interaction (ToxR signal)” value in data set [1] stood at 0.8934. Moreover, in data set [2], the “Mean TLR1-TMD* heterotypic interaction (ToxR signal)” value is 0.3722. Further, in data set [3], the “Helix content, 200-260 nm” value came out at 99.70%; the “Helix content, 205-260 nm” value is 99.90%; the “Helix content, 210-260 nm” value turned out to be 99.90%.

With “TLR2*: TLR2 TMD chimera with nonfunctional ToxR* domain (negative phenotype) (GNRASALVSGMCCALFLLILLTGVLCGSLIN; cysteine pairing not given here; also: fused to non-functional ToxR* (S87H) and maltose binding protein, ends not given here)”, the “Mean GpA-TMD* heterotypic interaction (ToxR signal)” value in data set [1] amounted to 0.7284. Also, the “Mean TLR1-TMD* heterotypic interaction (ToxR signal)” value in data set [2] is 0.3243. In addition, in data set [3], the “Helix content, 200-260 nm” value came out at 99.80%; the “Helix content, 205-260 nm” value amounted to 99.90%; the “Helix content, 210-260 nm” value worked out at 99.90%.
